Test results published in patent US20240190939A1 (SHATTUCK LABS, published 2024).

T1: recombinant human PD-L2 (human, UniProt Q9BQ51 20-220)
T1 sequence (looked up): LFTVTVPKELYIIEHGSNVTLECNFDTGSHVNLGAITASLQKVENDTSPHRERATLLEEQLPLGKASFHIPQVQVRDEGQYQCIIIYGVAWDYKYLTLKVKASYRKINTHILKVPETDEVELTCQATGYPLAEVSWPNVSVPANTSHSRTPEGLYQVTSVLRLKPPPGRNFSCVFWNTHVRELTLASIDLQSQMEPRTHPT

B1: murine TIGIT-Fc-LIGHT chimeric protein (Fc fusion)
chain 1: TIDTKRNISAEEGGSVILQCHFSSDTAEVTQVDWKQQDQLLAIYSVDLGWHVASVFSDRVVPGPSLGLTFQSLTMNDTGEYFCTYHTYPGGIYKGRIFLKVQESSDDRNGLAQFQTAPLG
chain 2: LHQRLGDIVAHLPDGGKGSWEKLIQDQRSHQANPAAHLTGANASLIGIGGPLLWETRLGLAFLRGLTYHDGALVTMEPGYYYVYSKVQLSGVGCPQGLANGLPITHGLYKRTSRYPKELELLVSRRSPCGRANSSRVWWDSSFLGGVVHLEAGEEVVVRVPGNRLVRPRDGTRSYFGAFMV
B2: human PD-1-Fc-LIGHT chimeric protein (Fc fusion)
chain: LDSPDRPWNPPTFSPALLVVTEGDNATFTCSFSNTSESFVLNWYRMSPSNQTDKLAAFPEDRSQPGQDCRFRVTQLPNGRDFHMSVVRARRNDSGTYLCGAISLAPKAQIKESLRAELRVTERRAEVPTAHPSPSPRPAGQFQSKYGPPCPPCPAPEFLGGPSVFLFPPKPKDQLMISRTPEVTCVVVDVSQEDPEVQFNWYVDGVEVHNAKTKPREEQFNSTYRVVSVLTVLHQDWLSGKEYKCKVSSKGLPSSIEKTISNATGQPREPQVYTLPPSQEEMTKNQVSLTCLVKGFYPSDIAVEWESNGQPENNYKTTPPVLDSDGSFFLYSRLTVDKSRWQEGNVFSCSVLHEALHNHYTQKSLSLSLGKIEGRMDLQLHWRLGEMVTRLPDGPAGSWEQLIQERRSHEVNPAAHLTGANSSLTGSGGPLLWETQLGLAFLRGLSYHDGALVVTKAGYYYIYSKVQLGGVGCPLGLASTITHGLYKRTPRYPEELELLVSQQSPCGRATSSSRVWWDSSFLGGVVHLEAGEKVVVRVLDERLVRLRDGTRSYFGAFMV
notes: also called hPD-1-Fc-LIGHT

Experiments:
[1] = target: T2, recombinant CD155; assay: ELISA: CD155/PVR capture, Fc-HRP detection
T2 construct: also called CD155/PVR

[2] = target: T3, mouse PVR on CHO-K1 cells (mouse); assay: flow cytometry on CHO-K1 cells expressing murine PVR
T3 construct: whole, on cells; also called CHOK1/PVR; mPVR engineered cell line

[3] = target: T4, human LTBR-His (human, UniProt P36941 31-227, limits assumed); assay: ELISA: hLTBR-Fc His Tag capture, 'hLIGHT Biotinylated' detection, streptavidin HRP
T4 construct: also called hLTBR-His
T4 sequence (P36941 31-227 limits assumed): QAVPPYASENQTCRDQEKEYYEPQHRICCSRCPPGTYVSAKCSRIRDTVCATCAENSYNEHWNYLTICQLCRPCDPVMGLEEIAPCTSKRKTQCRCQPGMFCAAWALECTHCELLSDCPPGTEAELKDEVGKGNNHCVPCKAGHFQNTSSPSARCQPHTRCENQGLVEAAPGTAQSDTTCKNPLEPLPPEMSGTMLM

[4] = target: T5, hPDL1-Fc (human, UniProt Q9NZQ7 19-238); assay: Dual ELISA: hPDL1-Fc capture, hLTBR-His detection, 6x His HRP (signal needs both hPDL1-Fc and hLTBR-His bound)
T5 construct: not shown: Fc, not identified
T5 sequence (Q9NZQ7 19-238 limits assumed): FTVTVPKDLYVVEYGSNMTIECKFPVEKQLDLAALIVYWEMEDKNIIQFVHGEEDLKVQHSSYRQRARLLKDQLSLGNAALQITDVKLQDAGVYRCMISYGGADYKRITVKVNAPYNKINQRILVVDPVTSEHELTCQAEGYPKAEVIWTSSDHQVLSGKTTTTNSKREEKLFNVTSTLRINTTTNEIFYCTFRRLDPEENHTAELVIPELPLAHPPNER
Method: For each chimeric protein ELISAs were performed under the following conditions: Heavy+Light Chain captured and detected with Fc-HRP (FIG. 13A and FIG. 13B, top left), a murine LTBR-His captured and detected with an antibody directed to murine LIGHT (FIG. 13A, top right) or human LTBR-His captured and detected with biotinylated human LIGHT (FIG. 138, top right), and mPD-L1 captured and detected with an antibody directed to mLIGHT (FIG. 13A, bottom left; “Dual ELISA”) or hPDL1-Fc captured and detected with hLTBR-His/6×His-HRP (FIG. 13A, bottom left; “Dual ELISA”).

[5] = target: T1, recombinant human PD-L2; assay: biolayer interferometry (Octet), recombinant human PD-L2
[6] = target: T6, human PD-L1 on CHO-K1 cells (human, UniProt Q9NZQ7 19-290); assay: flow cytometry on CHO-K1 cells expressing human PD-L1
T6 construct: whole, on cells; also called hPD-L1 engineered cell line; hPD-L1 over-expressing cell line
T6 sequence (Q9NZQ7 19-290): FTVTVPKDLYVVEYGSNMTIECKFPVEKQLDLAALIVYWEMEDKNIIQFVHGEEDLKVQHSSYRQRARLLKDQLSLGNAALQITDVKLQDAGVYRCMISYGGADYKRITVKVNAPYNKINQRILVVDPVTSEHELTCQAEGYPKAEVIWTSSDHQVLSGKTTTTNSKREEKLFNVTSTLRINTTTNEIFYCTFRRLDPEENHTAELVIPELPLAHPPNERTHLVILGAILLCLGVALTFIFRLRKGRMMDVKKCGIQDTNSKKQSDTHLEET
Source text: Cells were collected, washed, and stained with antibodies for the detection of the chimeric protein binding by flow cytometry.

Row | Binder | EC50 (read off the curve) [1] [nM] | EC50 [2] [nM] | EC50 (read off the curve) [3] [nM] | EC50 (read off the curve) [4] [nM] | binding result [5] | EC50 [6] [nM]
1 | B1 | ~5 | 215 | – | – | – | –
2 | B2 | – | – | ~20 | ~10 | binds | 48
